Reference: PMC11481913, “Rational design of a flavoenzyme for aerobic nicotine catabolism” (mBio, 2024)

Tested on: CNCCCC(=O)c1cccnc1
Test: purified protein
Assay type: biochemical, Pseudomonas putida
Conditions: Tris-HCl pH 8.0, 30 C, O2 as acceptor

Substance	Km	kcat	kcat/Km
Pnao (Pseudomonas putida S16; R96A)	56 ± 1 µM	0.75 ± 0.06 s⁻¹	13000 M⁻¹ s⁻¹
Pnao (Pseudomonas putida S16; N224I/W220Y)	570 ± 50 µM	383 ± 19 s⁻¹	680000 M⁻¹ s⁻¹
Pnao (Pseudomonas putida S16)	32 ± 1 µM	197 ± 1 s⁻¹	6.1e+06 M⁻¹ s⁻¹
Pnao (Pseudomonas putida S16; R96A/S461A)	83 ± 12 µM	0.39 ± 0.01 s⁻¹	4700 M⁻¹ s⁻¹
Pnao (Pseudomonas putida S16; F388A)	54 ± 1 µM	0.75 ± 0.01 s⁻¹	14000 M⁻¹ s⁻¹
Pnao (Pseudomonas putida S16; N224G/W220Y)	150 ± 0 µM	135 ± 2 s⁻¹	910000 M⁻¹ s⁻¹
